These results are taken from patent publication US20260250371A1 (ULTRAGENYX PHARMACEUTICAL, published 2026).

The chains are these.
B1: UGX126 (antibody, human IgG1, kappa, V domains shown)
VH: QVQLVQSGAEVKKPGASVKVSCKASGYTFTNHYMHWVRQAPGQGLEWMGIINPISGSTSNAQKFQGRVTMTRDTSTSTVYMELSSLRSEDTAVYYCARDIVDAFDFWGQGTMVTVSS
VL: AIQLTQSPSSLSASVGDRVTITCRASQGISSALVWYQQKPGKAPKLLIYDADSLESGVPSRFSGSGSGTDFTLTISSLQPEDFATYYCQQFNDYFTFGPGTKVDIKR
notes: also called LC:S52D; S52D
B2: UGX139 (antibody, human IgG1, kappa, V domains shown)
VH: B1 VH
VL: B1 VL with D52S, N92Y
notes: also called UGX038; LC:N92Y
B3: UGX157 (antibody, human IgG1, kappa, V domains shown)
VH: B1 VH with I54Y
VL: B1 VL with D52S
notes: also called HC:I54Y; I54Y
B4: UGX156 (antibody, human IgG1, kappa, V domains shown)
VH: B1 VH with I54F
VL: B1 VL with D52S
notes: also called HC:I54F; I54F
B5: UGX175 (antibody, human IgG1, kappa, V domains shown)
VH: B1 VH with A103S
VL: B1 VL with D52S
notes: also called HC:A103S; A103S
B6: UGX182 (antibody, human IgG1, kappa, V domains shown)
VH: B1 VH with S59D, V101I
VL: B1 VL with D52S
notes: also called HC:S59D, HC:V101I; S59D/V101I
B7: UGX201 (antibody, human IgG1, kappa, V domains shown)
VH: B1 VH with S59E
VL: B1 VL with D52S, N92F
notes: also called HC:S59E, LC:N92F; S59E/N92F
B8: UGX145 (antibody, human IgG1, kappa, V domains shown)
VH: B1 VH
VL: B1 VL with D52S, Y94E
notes: also called UGX042; LC:Y94E
B9: UGX202 (antibody, human IgG1, kappa, V domains shown)
VH: B1 VH with S59E
VL: B1 VL with D52S, N92Y
notes: also called HC:S59E, LC:N92Y; S59E/N92Y
B10: UGX204 (antibody, human IgG1, kappa, V domains shown)
VH: B1 VH with S59E
VL: B1 VL with D52E
notes: also called HC:S59E, LC:S52E; S59E/S52E
B11: UGX203 (antibody, human IgG1, kappa, V domains shown)
VH: B1 VH with S59E
VL: B1 VL
notes: also called HC:S59E, LC:S52D; S59E/S52D

Changes are numbered by the printed parent chain. In names and notes the source's numbering stands. Several values for one entry are separate records, joined by “and”; a condition that tells them apart may be missing. Equal entries are not always repeated.

The target in the first test is T1, recombinant human FGF23 (R179Q) (human, UniProt Q9GZV9 25-251).
T1 construct: also called rhFGF23(R179Q); hFGF23(R179Q)
T1 sequence (looked up): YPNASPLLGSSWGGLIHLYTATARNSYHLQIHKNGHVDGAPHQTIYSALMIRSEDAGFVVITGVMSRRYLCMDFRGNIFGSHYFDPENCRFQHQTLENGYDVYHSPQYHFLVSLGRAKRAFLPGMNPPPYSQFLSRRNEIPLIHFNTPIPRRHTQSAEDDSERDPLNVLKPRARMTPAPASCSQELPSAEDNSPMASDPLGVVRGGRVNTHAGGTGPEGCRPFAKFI
The test is described as follows: SPR, antibody captured on hIgG chip, human FGF23 analyte.
For B1, the “KD ratio (variant antibody KD/burosumab KD)” value (“KD ratio” below) came out at 2 and the Kd came to 12.4 pM.
As for B2, the “KD ratio” value worked out at 1 and the Kd is 16.4 pM.
Taken in the same sequence, the figures for B3 were 3 and 7.58 pM.
Take B4: the “KD ratio” value was determined as 2 and the Kd turned out to be 10.5 pM.
Taken in the same sequence, the figures for B5 were 3 and 7.72 pM.
On to B6, for which the “KD ratio” value came out at 2 and the Kd was determined as 9.47 pM.
Taken in the same sequence, the figures for B7 were 4 and 5.17 pM.
The like results for B8 were, in that order, 2 and 13.3 pM.
Taken in the same sequence, the figures for B9 were 3 and 7.59 pM.
For B10, the “KD ratio” value was 2 and the Kd was 13.3 pM.
The like results for B11 were, in that order, 2 and 11.5 pM.

For a further test, the target named is T1, recombinant human FGF23 (R179Q). The test is described as follows: SPR, antibody captured on hIgG chip, rhFGF23(R179Q) analyte.
For B1, the Kd is 12.4 pM, the “Ratio (variant antibody KD/burosumab KD)” value turned out to be 2, the “SA (surface activity)” value was 86.5% and the koff was 0.00013 s⁻¹. The kon is 1.05e+07 M⁻¹ s⁻¹.
The like results for B3 were, in that order, 7.58 pM, 3, 89.1%, 0.000113 s⁻¹ and 1.49e+07 M⁻¹ s⁻¹.
For B4, the Kd amounted to 10.5 pM, the “Ratio (variant antibody KD/burosumab KD)” value was determined as 2, the “SA (surface activity)” value was 106% and the koff came out at 6.25e-05 s⁻¹. The kon was 5.94e+06 M⁻¹ s⁻¹.
Taken in the same sequence, the figures for B5 were 7.72 pM, 3, 86.8%, 9.61e-05 s⁻¹ and 1.24e+07 M⁻¹ s⁻¹.
The like results for B6 were, in that order, 9.47 pM, 2, 100%, 0.000141 s⁻¹ and 1.49e+07 M⁻¹ s⁻¹.
The like results for B7 were, in that order, 5.17 pM, 4, 83.4%, 5.81e-05 s⁻¹ and 1.12e+07 M⁻¹ s⁻¹.
For B8, the Kd turned out to be 13.3 pM, the “Ratio (variant antibody KD/burosumab KD)” value came out at 2, the “SA (surface activity)” value came to 87.4% and the koff was found to be 8.52e-05 s⁻¹. In addition, the kon is 6.42e+06 M⁻¹ s⁻¹.
Take B9: the Kd is 7.59 pM, the “Ratio (variant antibody KD/burosumab KD)” value is 3, the “SA (surface activity)” value is 91.6% and the koff stood at 9.8e-05 s⁻¹. In addition, the kon was determined as 1.29e+07 M⁻¹ s⁻¹.
B10: the Kd came to 13.3 pM, the “Ratio (variant antibody KD/burosumab KD)” value turned out to be 2, the “SA (surface activity)” value was determined as 90.4% and the koff came to 0.000186 s⁻¹. Besides, the on-rate constant (kon) stood at 1.4e+07 M⁻¹ s⁻¹.
Taken in the same sequence, the figures for B11 were 11.5 pM, 2, 81.4%, 0.000145 s⁻¹ and 1.26e+07 M⁻¹ s⁻¹.

For the next test, the target named is T2, cynomolgus monkey (Macaca fascicularis) FGF23 (R179Q) (cynomolgus monkey (Macaca fascicularis), UniProt Q9GZV9 25-251 (human entry), limits assumed).
T2 construct: also called cynoFGF23; cynoFGF23(R179Q)
T2 chain: T1 sequence (looked up) with D85N, Q92R, Q94W, Y108H, I149R, M195V, G219A, A224P
The test is described as follows: SPR, antibody captured on hIgG chip, cynoFGF23(R179Q) analyte, single cycle kinetics. The procedure:
Binding kinetics of 13 antibody variants shown in Table 19 were characterized against cynomolgus monkey (Macaca fascicularis) FGF23 (R179Q) (i.e., “cynoFGF23”) (SEQ ID NO: 372). Antibody variants were expressed at small scale (3 ml) and screened by SPR analysis at a single concentration (100 nM). Experimental setup of SPR analysis for CRC: SPR device—8K+; chip preparation—CM5 hIgG chip: channels—1-8; immobilization concentration—1.5 ug/ml; immobilization method—capture; flow rate—5 μl/min; contact time—60 s; running buffer—1×HBS-EP+pH 7.4; temperature—20° C.: flow rate—50 μl/min; association time—120 s; dissociation time—1800 s; antigen—cynoFGF23(R179Q): top concentration—0.1 μM, 9-pt 3-fold Single Cycle Kinetics.
On to B1, for which the “KD ratio” value is 2 and the affinity, expressed as Kd, was 10.3 pM.
In the case of B2, the “KD ratio” value worked out at 1 and the Kd came to 16.2 pM.
The like results for B3 were, in that order, 4 and 5.73 pM.
The like results for B4 were, in that order, 6 and 4.15 pM.
The like results for B5 were, in that order, 4 and 6.17 pM.
Regarding B6, the “KD ratio” value amounted to 1 and the Kd was 16.3 pM.
Turning to B7, the “KD ratio” value was 2 and the Kd stood at 10.1 pM.
The like results for B8 were, in that order, 2 and 12.9 pM.
On to B9, for which the “KD ratio” value was 3 and binding was put at a Kd of 6.93 pM.
Take B10: the “KD ratio” value was determined as 1 and the equilibrium dissociation constant (Kd) is 16 pM.
The like results for B11 were, in that order, 1 and 22.9 pM.

Another test concerns the target T1, recombinant human FGF23 (R179Q). The test is described as follows: SPR, antibody captured on hIgG chip, rhFGF23(R179Q) analyte. The source holds these as a separate data set.
For B1, the Kd worked out at 12.4 pM, the “Ratio (variant antibody KD/burosumab KD)” value turned out to be 2, the “SA (surface activity)” value was determined as 86.5% and the koff worked out at 0.00013 s⁻¹. Further, the kon was determined as 1.05e+07 M⁻¹ s⁻¹.
With B2, the Kd was found to be 16.4 pM, the “Ratio (variant antibody KD/burosumab KD)” value was 1, the “SA (surface activity)” value was 86.2% and the koff was 0.000104 s⁻¹. Besides, the kon turned out to be 6.32e+06 M⁻¹ s⁻¹.
The like results for B3 were, in that order, 7.58 pM, 3, 89.1%, 0.000113 s⁻¹ and 1.49e+07 M⁻¹ s⁻¹.
Consider B4, for which the Kd is 9.24 pM and 10.5 pM; the “Ratio (variant antibody KD/burosumab KD)” value was 2; the koff is 9.77e-05 s⁻¹ and 6.25e-05 s⁻¹; the kon is 1.06e+07 M⁻¹ s⁻¹ and 5.94e+06 M⁻¹ s⁻¹.
B5: the Kd was found to be 7.72 pM, the “Ratio (variant antibody KD/burosumab KD)” value was found to be 3, the “SA (surface activity)” value came out at 86.8% and the koff was determined as 9.61e-05 s⁻¹. Moreover, the kon stood at 1.24e+07 M⁻¹ s⁻¹.
Turning to B6, the Kd was found to be 9.47 pM, the “Ratio (variant antibody KD/burosumab KD)” value was determined as 2, the “SA (surface activity)” value came to 100% and the koff was determined as 0.000141 s⁻¹. For the same molecule, the kon came out at 1.49e+07 M⁻¹ s⁻¹.
Turning to B7, the Kd was 4.52 pM and 6.32 pM and 5.17 pM; the koff was 3.65e-05 s⁻¹ and 6.31e-05 s⁻¹ and 5.81e-05 s⁻¹; the kon was 8.08e+06 M⁻¹ s⁻¹ and 9.99e+06 M⁻¹ s⁻¹ and 1.12e+07 M⁻¹ s⁻¹.
Consider B8, for which the Kd was 13.8 pM and 13.3 pM; the koff is 8.52e-05 s⁻¹ and 9.74e-05 s⁻¹; the kon was 6.42e+06 M⁻¹ s⁻¹ and 7.07e+06 M⁻¹ s⁻¹.
In the case of B9, the Kd is 7.53 pM and 7.59 pM and 8.07 pM; the “Ratio (variant antibody KD/burosumab KD)” value turned out to be 3; the koff is 8.91e-05 s⁻¹ and 9.8e-05 s⁻¹ and 9.45e-05 s⁻¹; the kon was 1.2e+07 M⁻¹ s⁻¹ (2×) and 1.3e+07 M⁻¹ s⁻¹.
B10: the Kd was 13.3 pM and 14 pM and 18.3 pM; the koff was 0.000186 s⁻¹ and 0.000121 s⁻¹ and 0.000138 s⁻¹; the kon was 1.4e+07 M⁻¹ s⁻¹ and 8.64e+06 M⁻¹ s⁻¹ and 7.57e+06 M⁻¹ s⁻¹.
Take B11: the Kd is 11.3 pM and 12.4 pM and 11.5 pM; the “Ratio (variant antibody KD/burosumab KD)” value stood at 2; the koff was 0.000145 s⁻¹ and 0.000134 s⁻¹; the kon was 1.3e+07 M⁻¹ s⁻¹ (2×) and 1.1e+07 M⁻¹ s⁻¹.
